{"source": "patent US20240108745A1", "about": "(MEDILINK THERAPEUTICS SUZHOU, published 2024)", "binders": {"B1": {"name": "anti-Her3 antibody 202-2-1 (antibody, human IgG1, kappa, V domains shown)", "VH": "EVQLVESGGGVVQPGRSLRLSCAASGFTFSTYGMHWVRQAPGKGLEWVAVIWYDVSHKYYADSVKGRFTISRDNSKNTLSLQMNSLRAEDTAVYYCARDWGDPDAFDIWGQGTMVTVSS", "VL": "not shown", "notes": "expressed in HEK293F; also called Her3mAb"}}, "key": {"rat Her3-his": {"target": "T1, rat Her3-his (rat, UniProt Q62799 20-643)", "T1 construct": "also called rat Her3 protein", "T1 sequence (Q62799 other isoform, or with tags, fused parts or gaps)": "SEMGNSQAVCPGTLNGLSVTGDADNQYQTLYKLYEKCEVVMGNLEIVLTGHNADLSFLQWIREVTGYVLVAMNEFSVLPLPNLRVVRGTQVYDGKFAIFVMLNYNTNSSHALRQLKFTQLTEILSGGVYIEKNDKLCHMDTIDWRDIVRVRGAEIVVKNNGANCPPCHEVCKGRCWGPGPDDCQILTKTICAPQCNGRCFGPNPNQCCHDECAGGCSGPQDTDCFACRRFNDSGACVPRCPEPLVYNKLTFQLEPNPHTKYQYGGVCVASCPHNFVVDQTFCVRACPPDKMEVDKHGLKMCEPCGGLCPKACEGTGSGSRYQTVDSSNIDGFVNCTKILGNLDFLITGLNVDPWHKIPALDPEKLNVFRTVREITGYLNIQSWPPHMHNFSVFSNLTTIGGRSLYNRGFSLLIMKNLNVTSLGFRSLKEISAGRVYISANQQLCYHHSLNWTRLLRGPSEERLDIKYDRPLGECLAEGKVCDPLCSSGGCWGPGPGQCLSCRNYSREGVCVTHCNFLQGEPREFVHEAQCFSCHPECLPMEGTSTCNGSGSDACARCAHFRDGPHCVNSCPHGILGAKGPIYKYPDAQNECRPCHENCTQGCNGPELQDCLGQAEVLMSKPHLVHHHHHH", "assay": "ELISA, rat Her3-his coated at 1 µg/mL, anti-human Fc-HRP", "procedure": "(§1) The affinity of anti-Her3 antibody to Her3 protein was detected by ELISA experimental method. Specific experimental procedures: human Her3-his, monkey Her3-his protein and rat Her3-his was diluted with carbonate buffer with a pH value of 9.6 to a final concentration of 1 μg/mL, and then added to 96-well enzyme labelling wells at 100 μL/well, and coated overnight at 4° C.; the coating solution was discarded, and the plate was washed once with PBST, then 100 μL of PBS (containing 2% BSA) was added to each well, and blocked at 37° C. for 1 h; then, 100 μL of anti-Her3 antibody diluted with PBS (containing 2% BSA) ((starting at 1 μg, 3 folds serial dilution, in duplicate wells) was added to each well, and then incubated at 37° C. for 2 h; the plate was washed three times with PBST, and horseradish peroxidase-labeled anti-human Fc antibody (diluted at 1:10000 with PBS) was added at 100 μL/well, then reacted for 1 h at 37° C. The plate was washed 5 times with PBST. TMB chromogenic solution was added at 100 μL/well and incubated at 37° C. for 7 min to develop color, and then the stop solution was added at 50 μL/well to terminate the reaction."}, "monkey Her3-his": {"target": "T2, monkey Her3-his (monkey)", "T2 chain": "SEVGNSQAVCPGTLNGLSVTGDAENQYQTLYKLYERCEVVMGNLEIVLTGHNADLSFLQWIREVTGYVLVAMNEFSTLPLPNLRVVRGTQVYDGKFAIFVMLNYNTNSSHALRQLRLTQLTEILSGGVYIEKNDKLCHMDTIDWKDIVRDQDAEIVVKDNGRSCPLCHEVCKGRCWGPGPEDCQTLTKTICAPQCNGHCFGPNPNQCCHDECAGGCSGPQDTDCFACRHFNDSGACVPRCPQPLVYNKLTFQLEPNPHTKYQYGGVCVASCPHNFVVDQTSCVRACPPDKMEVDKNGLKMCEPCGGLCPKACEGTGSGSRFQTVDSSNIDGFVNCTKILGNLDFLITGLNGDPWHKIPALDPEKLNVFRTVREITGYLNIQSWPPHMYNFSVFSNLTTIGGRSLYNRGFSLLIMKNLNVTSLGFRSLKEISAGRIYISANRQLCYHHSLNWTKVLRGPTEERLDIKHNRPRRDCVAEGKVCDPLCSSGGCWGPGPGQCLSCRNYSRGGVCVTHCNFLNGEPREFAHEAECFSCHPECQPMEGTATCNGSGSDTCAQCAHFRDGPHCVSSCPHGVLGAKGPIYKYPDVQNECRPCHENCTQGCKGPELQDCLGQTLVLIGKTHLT", "assay": "ELISA, antigen coated at 1 µg/mL, antibody titrated, anti-human Fc-HRP", "procedure": "as §1"}, "human Her3-his": {"target": "T3, human Her3-his (human, UniProt P21860 20-643)", "T3 construct": "range 1-643; also called human Her3 protein", "assay": "ELISA, antigen coated at 1 µg/mL, antibody titrated, anti-human Fc-HRP", "procedure": "as §1"}}}
{"binder": "B1", "values": [{"measurement": "binding result", "setting": "rat Her3-his", "value": "no binding"}, {"measurement": "EC50", "setting": "monkey Her3-his", "value": 0.0159, "unit": "nM"}, {"measurement": "EC50", "setting": "human Her3-his", "value": 0.021, "unit": "nM"}]}
